From patent publication US20240132617A1 (VISTERRA, published 2024) come the findings set out here.

The target in the test is T1, human C3b (human, UniProt P01024 23-667; P01024 749-1663, limits assumed).
T1 construct: C3b is its two-chain fragment (beta chain plus alpha' chain, without C3a); also called complement component 3b
Briefly: antibody levels measured by capture on human C3b versus Cynomolgus C3b (FIG. 1C and FIG. 1D). On the procedure:
In this study, pharmacokinetics of anti-C3b antibodies was determined in non-human primates. First, Ab1 (anti-C3b VHH fused to modified IgG4 Fc) and control Ab (IC12; control antibody) were intravenously administered at 10 mg/kg to Cynomolgus monkeys. Plasma samples were collected pre-administration and at 30 minutes, 6 hr, 24 hr, 48 hr, 120 hr, 336 hr, 456 hr, 672 hr, and 792 hr post administration, and % of antibody remaining was measured.
To confirm that the C3b antibody of the present invention binds to human C3b with high affinity, in addition to Cynomolgus C3b, concentrations of antibodies to human C3b or Cynomolgus C3b were measured.

T1 sequence (P01024 23-667 limits assumed, chain 1 of 2): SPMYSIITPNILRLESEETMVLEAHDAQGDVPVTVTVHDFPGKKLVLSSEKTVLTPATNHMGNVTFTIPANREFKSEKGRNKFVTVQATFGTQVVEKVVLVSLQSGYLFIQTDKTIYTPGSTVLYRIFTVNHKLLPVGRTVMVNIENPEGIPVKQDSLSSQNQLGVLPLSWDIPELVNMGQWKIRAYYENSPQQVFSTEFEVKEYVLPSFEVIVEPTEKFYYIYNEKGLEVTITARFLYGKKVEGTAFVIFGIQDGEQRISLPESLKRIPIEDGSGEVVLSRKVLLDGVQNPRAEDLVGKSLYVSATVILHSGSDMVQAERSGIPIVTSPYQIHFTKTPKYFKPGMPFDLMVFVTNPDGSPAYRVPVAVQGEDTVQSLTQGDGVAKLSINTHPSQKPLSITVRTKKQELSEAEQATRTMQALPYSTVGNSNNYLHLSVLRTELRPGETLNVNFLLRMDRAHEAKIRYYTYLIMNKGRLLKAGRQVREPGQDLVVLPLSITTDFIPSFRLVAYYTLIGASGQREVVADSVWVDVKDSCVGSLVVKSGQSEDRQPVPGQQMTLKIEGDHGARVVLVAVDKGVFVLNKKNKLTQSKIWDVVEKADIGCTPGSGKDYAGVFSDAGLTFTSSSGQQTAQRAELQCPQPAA
T1 sequence (P01024 749-1663 limits assumed, chain 2 of 2): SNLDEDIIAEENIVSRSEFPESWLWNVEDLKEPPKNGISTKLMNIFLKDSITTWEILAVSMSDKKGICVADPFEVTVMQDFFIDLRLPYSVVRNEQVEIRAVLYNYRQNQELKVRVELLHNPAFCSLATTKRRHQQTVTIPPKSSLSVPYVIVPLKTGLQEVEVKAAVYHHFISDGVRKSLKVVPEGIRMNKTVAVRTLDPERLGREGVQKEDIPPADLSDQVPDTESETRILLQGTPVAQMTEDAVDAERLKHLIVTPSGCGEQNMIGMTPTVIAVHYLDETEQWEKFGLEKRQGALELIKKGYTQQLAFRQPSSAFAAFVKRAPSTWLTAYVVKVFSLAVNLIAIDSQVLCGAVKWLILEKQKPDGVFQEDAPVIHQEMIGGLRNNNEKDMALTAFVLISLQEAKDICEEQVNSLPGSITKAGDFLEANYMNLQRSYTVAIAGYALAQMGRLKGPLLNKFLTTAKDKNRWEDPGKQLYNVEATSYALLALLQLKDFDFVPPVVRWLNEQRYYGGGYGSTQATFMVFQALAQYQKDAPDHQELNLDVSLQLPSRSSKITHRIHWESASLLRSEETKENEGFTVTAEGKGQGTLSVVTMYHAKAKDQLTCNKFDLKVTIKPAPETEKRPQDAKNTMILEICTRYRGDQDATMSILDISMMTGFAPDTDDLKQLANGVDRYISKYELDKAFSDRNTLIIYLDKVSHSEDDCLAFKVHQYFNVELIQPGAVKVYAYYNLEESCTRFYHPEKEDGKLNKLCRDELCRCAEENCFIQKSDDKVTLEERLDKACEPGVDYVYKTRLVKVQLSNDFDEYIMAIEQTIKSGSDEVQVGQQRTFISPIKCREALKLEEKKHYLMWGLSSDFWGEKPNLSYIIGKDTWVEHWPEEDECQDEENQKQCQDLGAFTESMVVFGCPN

B1: Ab1 (anti-C3b VHH fused to modified IgG4 Fc) (Fc fusion)
chain: EVQLLESGGGLVQPGGSLRLSCAASGRTFSNYHMGWFRQAPGQGREFVATIIRTGTTIYYADSVKGRFTISRDNSKNTLYLQMNSLRAEDTAVYYCAAATSGWHIKTVTPYEYWGQGTLVTVSSESKYGPPCPPCPAPEVEGGPSVFLFPPKPKDTLMISRTPEVTCVVVGVSQEDPEVQFNWYVDGVEVHNAKTKPREEQFNSTYRVVSVLQVLHVDWLNGKEYKCKVSNKGLPSSIEKTISKAKGQPREPQVYTLPPSQEEMTKNQVSLTCLVKGFYPSDIVVEWESNGQPENNYKTTPPVLDSDGSFFLYSRLTVDKSRWQEGNVFSCSVMHEALHNHYTQKSLSLSLGK
notes: In the assay Ab1 was in plasma of dosed Cynomolgus monkeys; also called anti-C3b Ab1; C3b antibody
Turning to B1, the “fold greater affinity as compared to Cynomolgus C3b” value is roughly 100 fold.
